In patent US20180155451A1 (published 2018):

B1: GpH7-B3 variant A327_09D/GpL16-k0 (antibody, human IgG1, kappa)
heavy: not shown
light: DIVMTQSPLSLPVTPGEPASISCQASESLVHSNRNTYLHWYLQKPGQSPQLLIYKVSNRFSGVPDRFSGSGSGTDFTLKISRVEAEDVGVYYCSQNTHVPPTFGQGTKVEIERTVAAPSVFIFPPSDEQLKSGTASVVCLLNNFYPREAKVQWKVDNALQSGNSQESVTEQDSKDSTYSLSSTLTLSKADYEKHKVYACEVTHQGLSSPVTKSFNRGEC
notes: homodimerized, mutation in both H chains; also called Ho Ab
B2: GpH7-B3 variant V266_07I/GpL16-k0 (antibody, human IgG1, kappa)
heavy: not shown
light: B1 light
notes: as for B1
B3: GpH7-B3 variant S267_09D/GpL16-k0 (antibody, human IgG1, kappa)
heavy: not shown
light: B1 light
notes: as for B1
B4: GpH7-B3 variant K334_19Q/GpL16-k0 (antibody, human IgG1, kappa)
heavy: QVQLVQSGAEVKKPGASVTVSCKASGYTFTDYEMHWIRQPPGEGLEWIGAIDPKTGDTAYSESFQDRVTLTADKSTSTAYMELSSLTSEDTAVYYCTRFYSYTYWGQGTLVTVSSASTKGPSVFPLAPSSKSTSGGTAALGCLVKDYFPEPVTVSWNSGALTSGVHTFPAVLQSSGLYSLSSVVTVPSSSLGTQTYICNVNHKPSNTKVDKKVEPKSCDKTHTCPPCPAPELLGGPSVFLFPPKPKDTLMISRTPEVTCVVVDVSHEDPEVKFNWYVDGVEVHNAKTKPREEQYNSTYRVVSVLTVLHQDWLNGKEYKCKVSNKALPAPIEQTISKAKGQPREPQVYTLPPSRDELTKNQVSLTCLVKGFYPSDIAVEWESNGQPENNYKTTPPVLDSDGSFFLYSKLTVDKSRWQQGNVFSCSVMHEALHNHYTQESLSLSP
light: B1 light
notes: as for B1
B5: GpH7-B3 variant L234_15Y/GpL16-k0 (antibody, human IgG1, kappa)
heavy: not shown
light: B1 light
notes: as for B1
B6: GpH7-B3 variant S337_07I/GpL16-k0 (antibody, human IgG1, kappa)
heavy: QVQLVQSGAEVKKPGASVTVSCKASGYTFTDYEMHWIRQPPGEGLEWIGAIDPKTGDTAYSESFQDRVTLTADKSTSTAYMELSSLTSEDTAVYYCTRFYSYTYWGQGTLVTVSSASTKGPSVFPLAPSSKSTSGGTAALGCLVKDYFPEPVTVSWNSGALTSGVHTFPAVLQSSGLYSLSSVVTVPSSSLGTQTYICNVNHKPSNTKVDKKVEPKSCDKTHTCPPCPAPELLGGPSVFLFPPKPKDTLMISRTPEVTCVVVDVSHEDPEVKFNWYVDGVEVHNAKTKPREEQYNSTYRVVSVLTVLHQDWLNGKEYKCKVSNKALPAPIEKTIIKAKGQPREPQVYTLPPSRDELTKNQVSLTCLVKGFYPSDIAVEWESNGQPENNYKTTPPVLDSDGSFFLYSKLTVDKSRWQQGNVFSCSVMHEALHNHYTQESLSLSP
light: B1 light
notes: as for B1
B7: GpH7-B3 variant E333_04F/GpL16-k0 (antibody, human IgG1, kappa)
heavy: not shown
light: B1 light
notes: as for B1
B8: GpH7-B3 variant I336_18N/GpL16-k0 (antibody, human IgG1, kappa)
heavy: not shown
light: B1 light
notes: as for B1
B9: GpH7-B3 variant G236_04F/GpL16-k0 (antibody, human IgG1, kappa)
heavy: not shown
light: B1 light
notes: as for B1
B10: GpH7-B3 variant E333_08L/GpL16-k0 (antibody, human IgG1, kappa)
heavy: not shown
light: B1 light
notes: as for B1
B11: GpH7-B3 variant K334_13S/GpL16-k0 (antibody, human IgG1, kappa)
heavy: not shown
light: B1 light
notes: as for B1
B12: GpH7-B3 variant L234_04F/GpL16-k0 (antibody, human IgG1, kappa)
heavy: not shown
light: B1 light
notes: as for B1
B13: GpH7-B3 variant G236_15Y/GpL16-k0 (antibody, human IgG1, kappa)
heavy: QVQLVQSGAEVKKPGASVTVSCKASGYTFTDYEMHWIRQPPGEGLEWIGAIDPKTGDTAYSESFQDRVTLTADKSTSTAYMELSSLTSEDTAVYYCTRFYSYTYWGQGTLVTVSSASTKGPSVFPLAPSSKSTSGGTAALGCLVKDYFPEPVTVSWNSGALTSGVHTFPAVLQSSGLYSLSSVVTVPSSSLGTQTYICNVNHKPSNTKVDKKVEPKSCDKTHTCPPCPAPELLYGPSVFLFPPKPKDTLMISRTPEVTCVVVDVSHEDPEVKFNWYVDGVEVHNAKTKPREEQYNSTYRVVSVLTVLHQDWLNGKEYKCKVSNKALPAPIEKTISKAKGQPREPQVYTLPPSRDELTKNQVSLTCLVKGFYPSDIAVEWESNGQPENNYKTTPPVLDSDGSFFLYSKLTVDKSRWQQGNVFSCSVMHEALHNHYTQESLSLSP
light: B1 light
notes: as for B1
B14: GpH7-B3 variant L234_20W/GpL16-k0 (antibody, human IgG1, kappa)
heavy: not shown
light: B1 light
notes: as for B1
B15: GpH7-B3 variant E333_13S/GpL16-k0 (antibody, human IgG1, kappa)
heavy: not shown
light: B1 light
notes: as for B1
B16: GpH7-B3 variant I336_03V/GpL16-k0 (antibody, human IgG1, kappa)
heavy: not shown
light: B1 light
notes: as for B1
B17: GpH7-B3 variant S239_08L/GpL16-k0 (antibody, human IgG1, kappa)
heavy: not shown
light: B1 light
notes: as for B1
B18: GpH7-B3 variant S239_10E/GpL16-k0 (antibody, human IgG1, kappa)
heavy: not shown
light: B1 light
notes: as for B1
B19: GpH7-B3 variant K326_07I/GpL16-k0 (antibody, human IgG1, kappa)
heavy: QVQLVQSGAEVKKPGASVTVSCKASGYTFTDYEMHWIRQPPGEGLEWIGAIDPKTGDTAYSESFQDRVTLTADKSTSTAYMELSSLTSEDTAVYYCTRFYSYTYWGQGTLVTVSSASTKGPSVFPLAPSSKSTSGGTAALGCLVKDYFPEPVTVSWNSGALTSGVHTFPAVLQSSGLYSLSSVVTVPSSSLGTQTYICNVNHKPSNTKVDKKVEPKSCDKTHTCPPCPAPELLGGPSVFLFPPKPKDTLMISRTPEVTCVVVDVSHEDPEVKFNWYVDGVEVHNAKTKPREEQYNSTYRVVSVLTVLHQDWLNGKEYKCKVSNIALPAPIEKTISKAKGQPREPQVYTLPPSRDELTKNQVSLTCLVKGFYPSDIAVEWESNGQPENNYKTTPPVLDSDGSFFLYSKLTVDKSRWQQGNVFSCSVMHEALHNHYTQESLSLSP
light: B1 light
notes: as for B1
B20: GpH7-B3 variant S267_10E/GpL16-k0 (antibody, human IgG1, kappa)
heavy: not shown
light: B1 light
notes: as for B1
B21: GpH7-B3 variant K326_01G/GpL16-k0 (antibody, human IgG1, kappa)
heavy: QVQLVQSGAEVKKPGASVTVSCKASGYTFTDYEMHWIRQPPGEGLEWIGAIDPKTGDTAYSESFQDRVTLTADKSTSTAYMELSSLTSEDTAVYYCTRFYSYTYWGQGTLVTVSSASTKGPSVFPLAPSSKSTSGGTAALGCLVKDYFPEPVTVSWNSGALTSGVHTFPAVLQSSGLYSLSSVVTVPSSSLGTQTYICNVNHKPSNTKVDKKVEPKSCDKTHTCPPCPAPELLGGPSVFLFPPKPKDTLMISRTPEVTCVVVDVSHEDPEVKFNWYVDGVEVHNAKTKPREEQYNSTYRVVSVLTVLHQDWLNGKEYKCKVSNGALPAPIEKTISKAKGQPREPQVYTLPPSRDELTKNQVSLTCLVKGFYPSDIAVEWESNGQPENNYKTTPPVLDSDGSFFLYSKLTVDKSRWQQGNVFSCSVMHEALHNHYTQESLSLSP
light: B1 light
notes: as for B1
B22: GpH7-B3 variant I336_10E/GpL16-k0 (antibody, human IgG1, kappa)
heavy: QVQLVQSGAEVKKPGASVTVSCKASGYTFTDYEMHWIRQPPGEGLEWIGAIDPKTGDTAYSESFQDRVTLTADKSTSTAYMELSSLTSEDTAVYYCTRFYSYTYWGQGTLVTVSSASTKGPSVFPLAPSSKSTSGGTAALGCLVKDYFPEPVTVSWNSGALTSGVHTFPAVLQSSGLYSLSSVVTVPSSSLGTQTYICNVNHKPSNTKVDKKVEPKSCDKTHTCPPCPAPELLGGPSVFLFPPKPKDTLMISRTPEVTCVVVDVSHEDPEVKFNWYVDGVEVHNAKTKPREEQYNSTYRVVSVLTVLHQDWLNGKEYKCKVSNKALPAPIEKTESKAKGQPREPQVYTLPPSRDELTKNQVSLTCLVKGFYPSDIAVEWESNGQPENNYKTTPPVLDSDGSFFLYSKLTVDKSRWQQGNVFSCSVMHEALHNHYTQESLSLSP
light: B1 light
notes: as for B1
B23: GpH7-B3 variant T335_16H/GpL16-k0 (antibody, human IgG1, kappa)
heavy: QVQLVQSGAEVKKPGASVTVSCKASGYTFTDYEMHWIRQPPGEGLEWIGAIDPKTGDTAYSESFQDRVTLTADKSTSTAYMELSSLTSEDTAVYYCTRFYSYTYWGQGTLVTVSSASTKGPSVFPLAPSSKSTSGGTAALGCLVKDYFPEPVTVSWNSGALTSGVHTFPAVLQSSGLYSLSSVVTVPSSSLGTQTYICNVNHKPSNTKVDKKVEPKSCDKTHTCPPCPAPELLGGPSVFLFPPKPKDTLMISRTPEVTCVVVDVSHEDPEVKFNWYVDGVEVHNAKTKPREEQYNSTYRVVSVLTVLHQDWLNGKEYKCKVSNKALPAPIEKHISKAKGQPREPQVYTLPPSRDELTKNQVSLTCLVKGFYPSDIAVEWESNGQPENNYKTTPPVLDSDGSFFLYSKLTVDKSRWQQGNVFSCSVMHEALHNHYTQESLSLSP
light: B1 light
notes: as for B1
B24: GpH7-B3 variant Y296_18N/GpL16-k0 (antibody, human IgG1, kappa)
heavy: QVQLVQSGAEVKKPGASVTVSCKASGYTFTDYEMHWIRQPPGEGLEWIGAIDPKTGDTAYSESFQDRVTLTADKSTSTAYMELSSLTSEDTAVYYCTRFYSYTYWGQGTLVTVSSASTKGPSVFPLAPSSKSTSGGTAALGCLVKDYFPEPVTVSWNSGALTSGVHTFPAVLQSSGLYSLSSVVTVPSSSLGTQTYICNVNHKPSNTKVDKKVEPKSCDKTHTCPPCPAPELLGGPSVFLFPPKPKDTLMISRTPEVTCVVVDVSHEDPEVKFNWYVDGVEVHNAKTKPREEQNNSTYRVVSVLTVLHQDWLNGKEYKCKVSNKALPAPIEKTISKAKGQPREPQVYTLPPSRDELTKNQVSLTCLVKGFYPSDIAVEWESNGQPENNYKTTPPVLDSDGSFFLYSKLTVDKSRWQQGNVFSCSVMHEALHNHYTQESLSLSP
light: B1 light
notes: as for B1
B25: GpH7-B3 variant E333_14T/GpL16-k0 (antibody, human IgG1, kappa)
heavy: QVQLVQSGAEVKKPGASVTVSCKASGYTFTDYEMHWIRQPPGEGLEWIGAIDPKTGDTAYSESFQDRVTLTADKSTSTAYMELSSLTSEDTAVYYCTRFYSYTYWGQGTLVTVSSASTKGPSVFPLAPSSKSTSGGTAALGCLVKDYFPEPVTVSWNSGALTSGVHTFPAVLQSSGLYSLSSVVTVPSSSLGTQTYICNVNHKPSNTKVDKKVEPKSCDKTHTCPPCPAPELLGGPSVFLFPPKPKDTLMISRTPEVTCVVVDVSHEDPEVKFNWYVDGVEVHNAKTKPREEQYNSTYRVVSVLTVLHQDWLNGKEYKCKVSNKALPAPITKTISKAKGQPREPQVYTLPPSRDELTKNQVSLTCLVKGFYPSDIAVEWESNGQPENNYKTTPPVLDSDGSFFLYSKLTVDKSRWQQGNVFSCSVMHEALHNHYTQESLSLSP
light: B1 light
notes: as for B1
B26: GpH7-B3 variant K326_12R/GpL16-k0 (antibody, human IgG1, kappa)
heavy: not shown
light: B1 light
notes: as for B1
B27: GpH7-B3 variant T335_19Q/GpL16-k0 (antibody, human IgG1, kappa)
heavy: not shown
light: B1 light
notes: as for B1
B28: GpH7-B3 variant A330_19Q/GpL16-k0 (antibody, human IgG1, kappa)
heavy: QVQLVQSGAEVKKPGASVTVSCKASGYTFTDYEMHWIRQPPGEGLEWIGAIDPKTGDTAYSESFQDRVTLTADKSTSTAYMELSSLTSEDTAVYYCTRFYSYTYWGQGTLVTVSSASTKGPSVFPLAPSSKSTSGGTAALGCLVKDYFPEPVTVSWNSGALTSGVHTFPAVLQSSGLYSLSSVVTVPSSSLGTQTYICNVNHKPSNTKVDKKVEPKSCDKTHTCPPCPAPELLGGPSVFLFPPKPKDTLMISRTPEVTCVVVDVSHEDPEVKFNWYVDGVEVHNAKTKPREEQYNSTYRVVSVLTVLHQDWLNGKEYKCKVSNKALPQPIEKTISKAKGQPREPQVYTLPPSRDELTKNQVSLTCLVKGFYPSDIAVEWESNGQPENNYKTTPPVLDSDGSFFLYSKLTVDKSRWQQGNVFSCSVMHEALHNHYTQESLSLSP
light: B1 light
notes: as for B1
B29: GpH7-B3 variant G236_14T/GpL16-k0 (antibody, human IgG1, kappa)
heavy: not shown
light: B1 light
notes: as for B1
B30: GpH7-A5/GpH7-B3 variant S337_08L/GpL16-k0 (antibody, human IgG1, kappa)
heavy 1: not shown
heavy 2: not shown
light: B1 light
notes: heterodimerized, mutation in one H chain only; also called He Ab
B31: GpH7-A5/GpH7-B3 variant L328_20W/GpL16-k0 (antibody, human IgG1, kappa)
heavy 1: not shown
heavy 2: not shown
light: B1 light
notes: as for B30
B32: GpH7-A5/GpH7-B3 variant T335_20W/GpL16-k0 (antibody, human IgG1, kappa)
heavy 1: not shown
heavy 2: not shown
light: B1 light
notes: as for B30
B33: GpH7-A5/GpH7-B3 variant L235_15Y/GpL16-k0 (antibody, human IgG1, kappa)
heavy 1: not shown
heavy 2: not shown
light: B1 light
notes: as for B30
B34: GpH7-A5/GpH7-B3 variant K326_10E/GpL16-k0 (antibody, human IgG1, kappa)
heavy 1: not shown
heavy 2: not shown
light: B1 light
notes: as for B30
B35: GpH7-A5/GpH7-B3 variant K326_19Q/GpL16-k0 (antibody, human IgG1, kappa)
heavy 1: not shown
heavy 2: not shown
light: B1 light
notes: as for B30
B36: GpH7-A5/GpH7-B3 variant L328_14T/GpL16-k0 (antibody, human IgG1, kappa)
heavy 1: not shown
heavy 2: not shown
light: B1 light
notes: as for B30
B37: GpH7-A5/GpH7-B3 variant K326_06M/GpL16-k0 (antibody, human IgG1, kappa)
heavy 1: not shown
heavy 2: not shown
light: B1 light
notes: as for B30
B38: GpH7-A5/GpH7-B3 variant E333_09D/GpL16-k0 (antibody, human IgG1, kappa)
heavy 1: not shown
heavy 2: not shown
light: B1 light
notes: as for B30
B39: GpH7-A5/GpH7-B3 variant S337_20W/GpL16-k0 (antibody, human IgG1, kappa)
heavy 1: not shown
heavy 2: not shown
light: B1 light
notes: as for B30
B40: GpH7-A5/GpH7-B3 variant I336_08L/GpL16-k0 (antibody, human IgG1, kappa)
heavy 1: not shown
heavy 2: not shown
light: B1 light
notes: as for B30
B41: GpH7-A5/GpH7-B3 variant I336_06M/GpL16-k0 (antibody, human IgG1, kappa)
heavy 1: not shown
heavy 2: not shown
light: B1 light
notes: as for B30
B42: GpH7-A5/GpH7-B3 variant V266_08L/GpL16-k0 (antibody, human IgG1, kappa)
heavy 1: not shown
heavy 2: not shown
light: B1 light
notes: as for B30
B43: GpH7-A5/GpH7-B3 variant L328_06M/GpL16-k0 (antibody, human IgG1, kappa)
heavy 1: not shown
heavy 2: not shown
light: B1 light
notes: as for B30
B44: GpH7-A5/GpH7-B3 variant K334_08L/GpL16-k0 (antibody, human IgG1, kappa)
heavy 1: not shown
heavy 2: not shown
light: B1 light
notes: as for B30
B45: GpH7-A5/GpH7-B3 variant G236_03V/GpL16-k0 (antibody, human IgG1, kappa)
heavy 1: not shown
heavy 2: not shown
light: B1 light
notes: as for B30
B46: GpH7-A5/GpH7-B3 variant H268_19Q/GpL16-k0 (antibody, human IgG1, kappa)
heavy 1: not shown
heavy 2: not shown
light: B1 light
notes: as for B30
B47: GpH7-A5/GpH7-B3 variant L235_20W/GpL16-k0 (antibody, human IgG1, kappa)
heavy 1: not shown
heavy 2: not shown
light: B1 light
notes: as for B30
B48: GpH7-A5/GpH7-B3 variant Y296_04F/GpL16-k0 (antibody, human IgG1, kappa)
heavy 1: not shown
heavy 2: not shown
light: B1 light
notes: as for B30
B49: GpH7-A5/GpH7-B3 variant G236_07I/GpL16-k0 (antibody, human IgG1, kappa)
heavy 1: not shown
heavy 2: not shown
light: B1 light
notes: as for B30
B50: GpH7-A5/GpH7-B3 variant A330_16H/GpL16-k0 (antibody, human IgG1, kappa)
heavy 1: not shown
heavy 2: not shown
light: B1 light
notes: as for B30
B51: GpH7-A5/GpH7-B3 variant Y296_16H/GpL16-k0 (antibody, human IgG1, kappa)
heavy 1: not shown
heavy 2: not shown
light: B1 light
notes: as for B30
B52: GpH7-A5/GpH7-B3 variant H268_18N/GpL16-k0 (antibody, human IgG1, kappa)
heavy 1: not shown
heavy 2: not shown
light: B1 light
notes: as for B30
B53: GpH7-A5/GpH7-B3 variant L235_04F/GpL16-k0 (antibody, human IgG1, kappa)
heavy 1: not shown
heavy 2: not shown
light: B1 light
notes: as for B30
B54: GpH7-A5/GpH7-B3 variant K334_04F/GpL16-k0 (antibody, human IgG1, kappa)
heavy 1: not shown
heavy 2: not shown
light: B1 light
notes: as for B30
B55: GpH7-A5/GpH7-B3 variant T335_18N/GpL16-k0 (antibody, human IgG1, kappa)
heavy 1: not shown
heavy 2: not shown
light: B1 light
notes: as for B30
B56: GpH7-A5/GpH7-B3 variant H268_02A/GpL16-k0 (antibody, human IgG1, kappa)
heavy 1: not shown
heavy 2: not shown
light: B1 light
notes: as for B30
B57: GpH7-A5/GpH7-B3 variant K334_16H/GpL16-k0 (antibody, human IgG1, kappa)
heavy 1: not shown
heavy 2: not shown
light: B1 light
notes: as for B30
B58: GpH7-A5/GpH7-B3 variant Y296_09D/GpL16-k0 (antibody, human IgG1, kappa)
heavy 1: not shown
heavy 2: not shown
light: B1 light
notes: as for B30
B59: GpH7-A5/GpH7-B3 variant S239_09D/GpL16-k0 (antibody, human IgG1, kappa)
heavy 1: not shown
heavy 2: not shown
light: B1 light
notes: as for B30

Target: T1, FcγRIIa H (human FcγRIIa, allotype with His at position 131), extracellular domain with C-terminal His tag (human, UniProt P12318 34-217)
Assay: SPR (Biacore), antibody captured on antigen peptide chip, FcγR as analyte; relative to HoCon Ab GpH7-B3/GpL16-k0 = 100

T1 sequence (P12318 34-217): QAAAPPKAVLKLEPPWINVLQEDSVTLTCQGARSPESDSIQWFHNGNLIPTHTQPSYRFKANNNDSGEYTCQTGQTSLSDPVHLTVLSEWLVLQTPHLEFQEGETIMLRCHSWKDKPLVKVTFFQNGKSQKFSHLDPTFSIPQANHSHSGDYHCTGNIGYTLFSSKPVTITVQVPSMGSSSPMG

| Ho/Con_2aH | Binder |
| --- | --- |
| 90.1 control = 100 | B1 |
| 104 control = 100 | B2 |
| 91.5 control = 100 | B3 |
| 97.2 control = 100 | B4 |
| 43.8 control = 100 | B5 |
| 94 control = 100 | B6 |
| 93.6 control = 100 | B7 |
| 94.3 control = 100 | B8 |
| 63.2 control = 100 | B9 |
| 96.5 control = 100 | B10 |
| 94.9 control = 100 | B11 |
| 54.2 control = 100 | B12 |
| 80.4 control = 100 | B13 |
| 55.3 control = 100 | B14 |
| 94.6 control = 100 | B15 |
| 90.4 control = 100 | B16 |
| 87 control = 100 | B17 |
| 91.4 control = 100 | B18 |
| 78.1 control = 100 | B19 |
| 98.5 control = 100 | B20 |
| 98.2 control = 100 | B21 |
| 93.4 control = 100 | B22 |
| 100 control = 100 | B23 |
| 100 control = 100 | B24 |
| 90.4 control = 100 | B25 |
| 98.8 control = 100 | B26 |
| 103 control = 100 | B27 |
| 99.2 control = 100 | B28 |
| 94.2 control = 100 | B29 |

Target: T1, FcγRIIa H (human FcγRIIa, allotype with …)
Assay: SPR (Biacore), antibody captured on antigen peptide chip, FcγR as analyte; relative to HeCon Ab GpH7-A5/GpH7-B3/GpL16-k0 = 100

| He/Con_2aH | Binder |
| --- | --- |
| 100 control = 100 | B30 |
| 113 control = 100 | B31 |
| 105 control = 100 | B32 |
| 122 control = 100 | B33 |
| 102 control = 100 | B34 |
| 101 control = 100 | B35 |
| 116 control = 100 | B36 |
| 103 control = 100 | B37 |
| 103 control = 100 | B38 |
| 102 control = 100 | B39 |
| 106 control = 100 | B40 |
| 106 control = 100 | B41 |
| 104 control = 100 | B42 |
| 104 control = 100 | B43 |
| 104 control = 100 | B44 |
| 119 control = 100 | B45 |
| 102 control = 100 | B46 |
| 118 control = 100 | B47 |
| 100 control = 100 | B48 |
| 115 control = 100 | B49 |
| 101 control = 100 | B50 |
| 104 control = 100 | B51 |
| 112 control = 100 | B52 |
| 111 control = 100 | B53 |
| 106 control = 100 | B54 |
| 103 control = 100 | B55 |
| 114 control = 100 | B56 |
| 104 control = 100 | B57 |
| 104 control = 100 | B58 |
| 114 control = 100 | B59 |
